# Source: the supplement of paper PMC10567573
# B1: MIA2 (parent)
# chain: DMVSNIELPTRIHEEVYFEPSSSK
# Variants of: B1
# Assay: protein stability index of a GFP-peptide fusion (GPS, HEK-293T) (PSI 1-6); higher = more stable
# Details: c terminus: a fixed tail appended
# 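Note: lentivirally expressed fusions sorted by FACS into six bins by GFP to DsRed ratio, PSI derived from sequencing read proportions per bin multiplied by bin number.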
row,Variant,protein stability index
1,DMVWNIELPTRIHEEVYFEPSSSK,2.6
2,DMVVNIELPTRIHEEVYFEPSSSK,3.33
3,DMVQNIELPTRIHEEVYFEPSSSK,3.52
4,DMVTNIELPTRIHEEVYFEPSSSK,3.73
5,DMVPNIELPTRIHEEVYFEPSSSK,4.34
6,DMVYNIELPTRIHEEVYFEPSSSK,4.01
7,DMVRNIELPTRIHEEVYFEPSSSK,3.97
8,DMVSNIEPPTRIHEEVYFEPSSSK,4.4
9,DMVSNIEIPTRIHEEVYFEPSSSK,4.04
10,DMVSNIEQPTRIHEEVYFEPSSSK,4.53
11,DMVSNIEAPTRIHEEVYFEPSSSK,4.46
12,DMVSNIEHPTRIHEEVYFEPSSSK,4.56
13,DMVSNIEKPTRIHEEVYFEPSSSK,3.83
14,DMVSNIEVPTRIHEEVYFEPSSSK,4.13
15,DMVSNIEWPTRIHEEVYFEPSSSK,4.22
16,DMVSNIETPTRIHEEVYFEPSSSK,4
17,DMVSNIECPTRIHEEVYFEPSSSK,4.02
18,DMVSNIERPTRIHEEVYFEPSSSK,3.64
19,DMVSNIEFPTRIHEEVYFEPSSSK,4.47
20,DMVSNIEEPTRIHEEVYFEPSSSK,5.22
21,DMVSNIEGPTRIHEEVYFEPSSSK,4.74
22,DMVSNIEMPTRIHEEVYFEPSSSK,3.46
23,DMVSNIENPTRIHEEVYFEPSSSK,4.44
24,DMVSNIEDPTRIHEEVYFEPSSSK,4.54

row,Variant,protein stability index
1,DMVSNIESPTRIHEEVYFEPSSSK,4.5
2,DMVSNIEYPTRIHEEVYFEPSSSK,3.52
3,DMVSNIELPTRIHMEVYFEPSSSK,2.58
4,DMVSNIELPTRIHGEVYFEPSSSK,3.28
5,DMVSNIELPTRIHKEVYFEPSSSK,3.36
6,DMVSNIELPTRIHCEVYFEPSSSK,1.91
7,DMVSNIELPTRIHHEVYFEPSSSK,3.28
8,DMVSNIELPTRIHLEVYFEPSSSK,2.04
9,DMVSNIELPTRIHFEVYFEPSSSK,2.46
10,DMVSNIELPTRIHAEVYFEPSSSK,3.51
11,DMVSNIELPTRIHDEVYFEPSSSK,3.59
12,DMVSNIELPTRIHNEVYFEPSSSK,3.82
13,DMVSNIELPRRIHEEVYFEPSSSK,3.63
14,DMVSNIELPSRIHEEVYFEPSSSK,4.13
15,DMVSNIELPCRIHEEVYFEPSSSK,1.67
16,DMVSNIELPYRIHEEVYFEPSSSK,3.83
17,DMVSNIELPPRIHEEVYFEPSSSK,4
18,DMVSNIELPIRIHEEVYFEPSSSK,3.94
19,DMVSNIELPERIHEEVYFEPSSSK,4.01
20,DMVSNIELPMRIHEEVYFEPSSSK,3.81
21,DMVSNIELPKRIHEEVYFEPSSSK,3.4
22,DMVSNIELPWRIHEEVYFEPSSSK,3.27
23,DMVSNIELPQRIHEEVYFEPSSSK,4.44
24,DMVSNIELPARIHEEVYFEPSSSK,4.23

row,Variant,protein stability index
1,DMVSNIELPGRIHEEVYFEPSSSK,3.83
2,DMVSNIELPVRIHEEVYFEPSSSK,3.65
3,DMVSNIELPHRIHEEVYFEPSSSK,4.47
4,DMVSNIELPLRIHEEVYFEPSSSK,4.11
5,DMVSNIELPNRIHEEVYFEPSSSK,3.61
6,DMVSNIELPFRIHEEVYFEPSSSK,3.86
7,DMVSNIELPDRIHEEVYFEPSSSK,4.74
8,DMVSAIELPTRIHEEVYFEPSSSK,4.14
9,DMVSHIELPTRIHEEVYFEPSSSK,4.3
10,DMVSVIELPTRIHEEVYFEPSSSK,3.5
11,DMVSMIELPTRIHEEVYFEPSSSK,3.99
12,DMVSRIELPTRIHEEVYFEPSSSK,3.92
13,DMVSWIELPTRIHEEVYFEPSSSK,4.38
14,DMVSCIELPTRIHEEVYFEPSSSK,4.04
15,DMVSLIELPTRIHEEVYFEPSSSK,3.19
16,DMVSQIELPTRIHEEVYFEPSSSK,4.33
17,DMVSPIELPTRIHEEVYFEPSSSK,5.11
18,DMVSIIELPTRIHEEVYFEPSSSK,3.86
19,DMVSTIELPTRIHEEVYFEPSSSK,4.47
20,DMVSYIELPTRIHEEVYFEPSSSK,2.46
21,DMVSSIELPTRIHEEVYFEPSSSK,4.46
22,DMVSDIELPTRIHEEVYFEPSSSK,4.56
23,DMVSKIELPTRIHEEVYFEPSSSK,4.43
24,DMVSGIELPTRIHEEVYFEPSSSK,3.84

row,Variant,protein stability index
1,DMVSFIELPTRIHEEVYFEPSSSK,3.95
2,DMVSEIELPTRIHEEVYFEPSSSK,4.18
3,DMVSNIELPTRTHEEVYFEPSSSK,3.98
4,DMVSNIELPTRPHEEVYFEPSSSK,3.86
5,DMVSNIELPTRQHEEVYFEPSSSK,4.11
6,DMVSNIELPTRLHEEVYFEPSSSK,3.89
7,DMVSNIELPTRAHEEVYFEPSSSK,4.18
8,DMVSNIELPTRGHEEVYFEPSSSK,4.39
9,DMVSNIELPTRCHEEVYFEPSSSK,3.22
10,DMVSNIELPTRYHEEVYFEPSSSK,3.87
11,DMVSNIELPTRHHEEVYFEPSSSK,3.42
12,DMVSNIELPTRNHEEVYFEPSSSK,3.69
13,DMVSNIELPTRSHEEVYFEPSSSK,4.51
14,DMVSNIELPTRKHEEVYFEPSSSK,3.64
15,DMVSNIELPTRVHEEVYFEPSSSK,4.25
16,DMVSNIELPTRRHEEVYFEPSSSK,3.06
17,DMVSNIELPTREHEEVYFEPSSSK,4.33
18,DMVSNIELPTRFHEEVYFEPSSSK,3.57
19,DMVSNIELPTRDHEEVYFEPSSSK,4.79
20,DMVSNIELPTRWHEEVYFEPSSSK,3.59
21,DMVSNIELPTRMHEEVYFEPSSSK,3.6
22,DMVSNIELDTRIHEEVYFEPSSSK,3.46
23,DMVSNIELQTRIHEEVYFEPSSSK,4.08
24,DMVSNIELWTRIHEEVYFEPSSSK,2.98

row,Variant,protein stability index
1,DMVSNIELSTRIHEEVYFEPSSSK,3.31
2,DMVSNIELHTRIHEEVYFEPSSSK,3.5
3,DMVSNIELVTRIHEEVYFEPSSSK,2.94
4,DMVSNIELATRIHEEVYFEPSSSK,3.46
5,DMVSNIELLTRIHEEVYFEPSSSK,3.65
6,DMVSNIELYTRIHEEVYFEPSSSK,3.41
7,DMVSNIELRTRIHEEVYFEPSSSK,3.6
8,DMVSNIELFTRIHEEVYFEPSSSK,3.01
9,DMVSNIELCTRIHEEVYFEPSSSK,3.53
10,DMVSNIELTTRIHEEVYFEPSSSK,3.69
11,DMVSNIELNTRIHEEVYFEPSSSK,4.06
12,DMVSNIELITRIHEEVYFEPSSSK,3.3
13,DMVSNIELMTRIHEEVYFEPSSSK,3.35
14,DMVSNIELGTRIHEEVYFEPSSSK,3.53
15,DMVSNIELETRIHEEVYFEPSSSK,4.21
16,DMVSNIELKTRIHEEVYFEPSSSK,3.89
17,DMVSNIELPTLIHEEVYFEPSSSK,3.94
18,DMVSNIELPTSIHEEVYFEPSSSK,4.07
19,DMVSNIELPTDIHEEVYFEPSSSK,4.49
20,DMVSNIELPTVIHEEVYFEPSSSK,4.14
21,DMVSNIELPTIIHEEVYFEPSSSK,3.58
22,DMVSNIELPTPIHEEVYFEPSSSK,4.09
23,DMVSNIELPTCIHEEVYFEPSSSK,3.62
24,DMVSNIELPTWIHEEVYFEPSSSK,3.52

row,Variant,protein stability index
1,DMVSNIELPTMIHEEVYFEPSSSK,4.16
2,DMVSNIELPTAIHEEVYFEPSSSK,4.7
3,DMVSNIELPTNIHEEVYFEPSSSK,4.39
4,DMVSNIELPTQIHEEVYFEPSSSK,4.42
5,DMVSNIELPTTIHEEVYFEPSSSK,4.27
6,DMVSNIELPTHIHEEVYFEPSSSK,3.43
7,DMVSNIELPTYIHEEVYFEPSSSK,3.26
8,DMVSNIELPTGIHEEVYFEPSSSK,4.86
9,DMVSNIELPTEIHEEVYFEPSSSK,4.5
10,DMVSNIELPTKIHEEVYFEPSSSK,3.77
11,DMVSNIELPTFIHEEVYFEPSSSK,3.42
12,DMVSNIELPTRIIEEVYFEPSSSK,3.42
13,DMVSNIELPTRIAEEVYFEPSSSK,4
14,DMVSNIELPTRIKEEVYFEPSSSK,3.64
15,DMVSNIELPTRIREEVYFEPSSSK,3.8
16,DMVSNIELPTRIFEEVYFEPSSSK,3.81
17,DMVSNIELPTRILEEVYFEPSSSK,3.99
18,DMVSNIELPTRIPEEVYFEPSSSK,4.32
19,DMVSNIELPTRICEEVYFEPSSSK,3.37
20,DMVSNIELPTRINEEVYFEPSSSK,4.19
21,DMVSNIELPTRIVEEVYFEPSSSK,3.62
22,DMVSNIELPTRIYEEVYFEPSSSK,3.57
23,DMVSNIELPTRISEEVYFEPSSSK,3.33
24,DMVSNIELPTRIEEEVYFEPSSSK,4.44

row,Variant,protein stability index
1,DMVSNIELPTRIDEEVYFEPSSSK,3.59
2,DMVSNIELPTRIGEEVYFEPSSSK,4.05
3,DMVSNIELPTRIMEEVYFEPSSSK,3.02
4,DMVSNIELPTRIWEEVYFEPSSSK,3.15
5,DMVSNIELPTRIQEEVYFEPSSSK,3.84
6,DMVSNIELPTRITEEVYFEPSSSK,3.02
7,DMVSNIILPTRIHEEVYFEPSSSK,2.88
8,DMVSNIMLPTRIHEEVYFEPSSSK,3.29
9,DMVSNIPLPTRIHEEVYFEPSSSK,3.34
10,DMVSNISLPTRIHEEVYFEPSSSK,3.02
11,DMVSNIWLPTRIHEEVYFEPSSSK,2.64
12,DMVSNIQLPTRIHEEVYFEPSSSK,2.9
13,DMVSNITLPTRIHEEVYFEPSSSK,2.78
14,DMVSNIKLPTRIHEEVYFEPSSSK,3.03
15,DMVSNIYLPTRIHEEVYFEPSSSK,2.11
16,DMVSNIVLPTRIHEEVYFEPSSSK,3.53
17,DMVSNILLPTRIHEEVYFEPSSSK,3.16
18,DMVSNINLPTRIHEEVYFEPSSSK,2.85
19,DMVSNIGLPTRIHEEVYFEPSSSK,3.58
20,DMVSNIRLPTRIHEEVYFEPSSSK,3.33
21,DMVSNICLPTRIHEEVYFEPSSSK,3.32
22,DMVSNIDLPTRIHEEVYFEPSSSK,3.83
23,DMVSNIALPTRIHEEVYFEPSSSK,3.65
24,DMVSNIHLPTRIHEEVYFEPSSSK,3.98

row,Variant,protein stability index
1,DMVSNIFLPTRIHEEVYFEPSSSK,3.59
2,DMVSNQELPTRIHEEVYFEPSSSK,4.19
3,DMVSNAELPTRIHEEVYFEPSSSK,4.51
4,DMVSNLELPTRIHEEVYFEPSSSK,4.16
5,DMVSNKELPTRIHEEVYFEPSSSK,4.68
6,DMVSNHELPTRIHEEVYFEPSSSK,4.34
7,DMVSNRELPTRIHEEVYFEPSSSK,3.84
8,DMVSNMELPTRIHEEVYFEPSSSK,4.32
9,DMVSNCELPTRIHEEVYFEPSSSK,4.91
10,DMVSNGELPTRIHEEVYFEPSSSK,4.52
11,DMVSNEELPTRIHEEVYFEPSSSK,5.27
12,DMVSNFELPTRIHEEVYFEPSSSK,4.08
13,DMVSNPELPTRIHEEVYFEPSSSK,4.4
14,DMVSNVELPTRIHEEVYFEPSSSK,4.18
15,DMVSNYELPTRIHEEVYFEPSSSK,4.03
16,DMVSNWELPTRIHEEVYFEPSSSK,3.32
17,DMVSNTELPTRIHEEVYFEPSSSK,4.48
18,DMVSNDELPTRIHEEVYFEPSSSK,4.86
19,DMVSNNELPTRIHEEVYFEPSSSK,4.77
20,DMVSNSELPTRIHEEVYFEPSSSK,4.07
